Consider two molecules from PMC3376133, “Glutamine versus Ammonia Utilization in the NAD Synthetase Family” (PLoS ONE, 2012).

For data set [1], the target named is T1, tt_NADS S-subunit (Thermus thermophilus, UniProt Q72HE9).
T1 construct: gene TT_C1538; S-subunit expressed alone in E. coli BL21/DE3, N-terminal His6-tag
T1 sequence (Q72HE9 1-281): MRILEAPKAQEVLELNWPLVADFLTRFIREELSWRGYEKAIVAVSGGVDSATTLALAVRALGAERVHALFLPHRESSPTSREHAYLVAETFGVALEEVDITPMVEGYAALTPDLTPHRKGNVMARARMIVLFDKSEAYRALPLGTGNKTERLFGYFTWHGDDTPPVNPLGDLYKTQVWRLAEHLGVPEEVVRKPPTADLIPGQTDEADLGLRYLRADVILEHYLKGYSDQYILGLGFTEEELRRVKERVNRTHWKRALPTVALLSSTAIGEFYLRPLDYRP
Nature of the data set: coupled alcohol dehydrogenase assay, NADH at […] nm. The class given is biochemical. To be noted: ammonia as amide donor, ATP; constants possibly in Figure 3C.

Substrate in data set [2]: Nc1ncnc2c1ncn2[C@@H]1O[C@H](COP(=O)(O)OP(=O)([O-])OC[C@H]2O[C@@H]([n+]3cccc(C(=O)O)c3)[C@H](O)[C@@H]2O)[C@@H](O)[C@H]1O
Nature of the data set: steady-state kinetics of NAD synthetase activity. The note with it: ammonia 4 mM, saturating ATP (2 mM), 10 mM MgCl2, pH 7.5. The class given is biochemical, Methanocaldococcus jannaschii.

`Nc1ncnc2c1ncn2[C@@H]1O[C@H](COP(=O)(O)OP(=O)([O-])OC[C@H]2O[C@@H]([n+]3cccc(C(=O)O)c3)[C@H](O)[C@@H]2O)[C@@H](O)[C@H]1O` [NaAD]: the “coupled alcohol dehydrogenase assay, NADH at 340 nm” value in data set [1] is “the S-subunit alone ... had a comparable NADS activity only with ammonia”.

B1: mj_NADS (Methanocaldococcus jannaschii DSM 2661) (protein)
chain: MLWGESMEEIVNKITKFIREKVEEANANGVVVGLSGGIDSSVTAYLCVKALGKDKVLGLIMPEKNTNPKDVEHAKMVAENLGIKYIISDITDILKAFGAGGYVPTREFDKIADGNLKARIRMCILYYFANKYNLLVAGTSNKSEIYVGYGTKHGDIACDIRPIGNLFKTEVKKLAKYIGVPKEIIEKPPSAGLWEGQTDEEELDIKYETLDTILKLYEKGKTPEEIHKETNIPLETINYVFDLIKKNEHKRTLPPTPEI
notes: full-length single-domain NADS, N-terminal His6-tag, pET-derived vector, E. coli BL21/DE3
In general, Km refers to the substrate concentration at which the rate is half of its maximum. For orientation: kcat means the maximal rate divided by the concentration of active sites. Regarding B1, in data set [2], the Michaelis constant (Km) amounted to 130 ± 20 µM and the kcat was 0.20 ± 0.01 s⁻¹.
